Data from publication PMC10995199, “Architecture and regulation of filamentous human cystathionine beta-synthase” (Nature Communications, 2024).

Biological target: human cystathionine beta-synthase regulatory domain alone with the loop deletion (CBS^RDΔ516–525) (human) (UniProt P35520)
Test: SEC + native gel or EMSA; control constructs in analytical Superose 6 gel filtration and clear-native and blue-native PAGE (Supplementary Fig. 2); self-association

## human cystathionine beta-synthase regulatory domain alone with the loop deletion (CBS^RDΔ516–525) (from UniProt P35520 406-515) (domain or fragment)
  stoichiometry N: 2
